Assay results taken from US20200317768A1 (published 2020).
Changes are numbered by the printed parent chain.

T1: human FcγRIIaR extracellular domain, C-terminal His-tag (human, UniProt P12318 34-217)
T1 construct: also called human FcγRIIa (type R); FcgRIIaR
T1 chain: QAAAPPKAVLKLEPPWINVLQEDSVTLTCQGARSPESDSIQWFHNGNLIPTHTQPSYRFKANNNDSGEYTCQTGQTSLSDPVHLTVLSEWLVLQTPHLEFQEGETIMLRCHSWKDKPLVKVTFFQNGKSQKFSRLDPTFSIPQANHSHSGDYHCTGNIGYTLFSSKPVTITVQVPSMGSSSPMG

T2: cynomolgus monkey FcγRIIa2 extracellular domain, C-terminal His-tag (cynomolgus monkey)
T2 construct: also called cyno FcγRIIa2; cynoFcgRIIa2
T2 chain: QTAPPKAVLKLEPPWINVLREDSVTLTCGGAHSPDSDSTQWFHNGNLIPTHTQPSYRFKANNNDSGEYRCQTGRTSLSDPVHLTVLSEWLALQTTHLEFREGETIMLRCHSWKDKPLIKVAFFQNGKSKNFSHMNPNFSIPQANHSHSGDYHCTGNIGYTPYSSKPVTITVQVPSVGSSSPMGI

T3: human FcγRIIaH extracellular domain, C-terminal His-tag (human, UniProt P12318 34-217)
T3 construct: also called human FcγRIIa (type H); FcgRIIaH
T3 sequence: T1 chain with R134H

T4: cynomolgus monkey FcγRIIa3 extracellular domain, C-terminal His-tag (cynomolgus monkey)
T4 construct: also called cyno FcγRIIa3; cynoFcgRIIa3
T4 chain: T2 chain with K127I, N130K, H133P, Q142R

T5: cynomolgus monkey FcγRIIb extracellular domain, C-terminal His-tag (cynomolgus monkey)
T5 construct: also called cyno FcγRIIb; cynoFcγRIIb
T5 chain: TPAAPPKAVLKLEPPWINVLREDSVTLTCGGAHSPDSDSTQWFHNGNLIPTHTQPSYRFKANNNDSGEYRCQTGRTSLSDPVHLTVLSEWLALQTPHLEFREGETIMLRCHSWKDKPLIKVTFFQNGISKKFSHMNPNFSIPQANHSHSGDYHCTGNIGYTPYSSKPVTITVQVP

T6: cynomolgus monkey FcγRIIIaS extracellular domain, C-terminal His-tag (cynomolgus monkey, UniProt Q8SPW2 21-206 at identity 1.00))
T6 construct: also called cyno FcγRIIIaS; cynoFcγRIIIaS
T6 chain: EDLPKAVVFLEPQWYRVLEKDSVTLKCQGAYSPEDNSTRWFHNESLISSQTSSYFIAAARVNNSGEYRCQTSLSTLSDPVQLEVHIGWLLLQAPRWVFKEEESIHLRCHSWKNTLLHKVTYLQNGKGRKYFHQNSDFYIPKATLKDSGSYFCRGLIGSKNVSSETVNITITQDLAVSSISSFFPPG

T7: cynomolgus monkey FcγRIIa1 extracellular domain, C-terminal His-tag (cynomolgus monkey)
T7 construct: also called cyno FcγRIIa1; cynoFcgRIIa1
T7 chain: T2 chain with T95P, A121T, K127I, S128A, N130K, N135D, Q142R

B1: M103205H795-MY052/M103202L889-SK1 (antibody, human IgG1, kappa)
heavy: QVTLKESGPVLVKPTETLTLTCTVSGIDLSHDDISWVRQAPGKGLEWVGIISYAGSTYYASWAKGRLTISKDTSKNQVVLTMTNMDPVDTATYYCARGVPAYSHGGDLWGQGTLVTVSSASTKGPSVFPLAPSSKSTSGGTAALGCLVKDYFPEPVTVSWNSGALTSGVHTFPAVLQSSGLYSLSSVVTVPSSSLGTQTYICNVNHKPSNTKVDKKVEPKSCDKTHTCPPCPAPELLNGPSVFLFPPKPKDTLMISRTPEVTCVVVDVSEEDPEVKFNWYVDGVEVHNAKTKPREEQYNSTYRVVSVLTVLHQDWLNGKEYKCKVSNKALPAPIEKTISKAKGQPREPQVYTLPPSREEMTKNQVSLTCLVKGFYPSDIAVEWESNGQPENNYKTTPMVLDSDGSFFLYSKLTVDKSRWQQGNVFSCSVMHEALHNHYTQKSLSLSP
light: DIVMTQSPATLSLSPGERATLSCTSSQSVYHANWLSWFQQKPGQPPKLLIYWASTLAYGVPSRFSGSGSGTDFTLTISSLQPEDAATYYCAGGYGGGRYAFGQGTKVEIKRTVAAPSVFIFPPSDEQLKSGTASVVCLLNNFYPREAKVQWKVDNALQSGNSQESVTEQDSKDSTYSLSSTLTLSKADYEKHKVYACEVTHQGLSSPVTKSFNRGEC
notes: Substitutions introduced into M103205H795-SG1; expressed with M103202L889-SK1 as light chain
B2: M103205H795-MY141/M103202L889-SK1 (antibody, human IgG1, kappa)
heavy: B1 heavy with S269A, E270H
light: B1 light
notes: as for B1
B3: M103205H795-MY115/M103202L889-SK1 (antibody, human IgG1, kappa)
heavy: B1 heavy with S269A
light: B1 light
notes: as for B1
B4: M103205H795-MY147/M103202L889-SK1 (antibody, human IgG1, kappa)
heavy: B1 heavy with L237W
light: B1 light
notes: as for B1
B5: M103205H795-MY117/M103202L889-SK1 (antibody, human IgG1, kappa)
heavy: B1 heavy with L236W, S269A
light: B1 light
notes: as for B1
B6: M103205H795-MY197/M103202L889-SK1 (antibody, human IgG1, kappa)
heavy: B1 heavy with E270D, A332K
light: B1 light
notes: as for B1
B7: M103205H795-MY105/M103202L889-SK1 (antibody, human IgG1, kappa)
heavy: B1 heavy with S241V
light: B1 light
notes: as for B1
B8: M103205H795-MY101/M103202L889-SK1 (antibody, human IgG1, kappa)
heavy: B1 heavy with A332K
light: B1 light
notes: also called MS1032LO06-MY101

Target: T1, human FcγRIIaR extracellular domain, …
Test: SPR (Biacore); KD of SG1 / KD of variant;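 also: relative to parent M103205H795-SG1 carrying the SG1 human heavy chain constant region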
Procedure: (§1) The kinetic analysis of interactions between these antibodies and FcγR was carried out using BIACORE® T200 or BIACORE® 4000 (GE Healthcare). HBS-EP+ (GE Healthcare) was used as the running buffer, and the measurement temperature was set to 25° C. A chip produced by immobilizing Protein A. Protein A/G or mouse anti-human IgG kappa light chain (BD Biosciences) onto a Series S Sensor Chip CM4 or CM5 (GE Healthcare) by the amine-coupling method was used. […] After the measurement, the antibody captured on the chip was washed off by allowing reaction with 10 mM glycine-HCl, pH1.5 and 25 mM NaOH so that the chip was regenerated and used repeatedly. The sensorgrams obtained as measurement results were analyzed by the 1:1 Langmuir binding model using the BIACORE® Evaluation Software to calculate the binding rate constant ka (L/mol/s) and dissociation rate constant kd (l/s), and the dissociation constant KD (mol/L) was calculated from these values. […] Regarding such interactions, KD values were calculated using the following 1:1 binding model described in BIACORE® T100 Software Handbook BR1006-48 Edition AE.
(§2) The behavior of interacting molecules according to the 1:1 binding model on BIACORE® can be described by Equation 1: Req=C·R max/(KD+C)+RI, wherein, Req is a plot of steady-state binding levels to analyte concentration. C is concentration, RI is bulk refractive index contribution in the sample, and Rmax is analyte binding capacity of the surface. When this equation is rearranged, KD can be expressed as Equation 2: KD=C·Rmax/(Req−RI)−C. KD can be calculated by substituting the values of Rmax, RI, and C into Equation 1 or Equation 2. From the current measurement conditions, RI=0, C=2 μmol/L can be used.

KD fold (SG1 = 1) [fold] | Binder
0.5 | B1
0.7 | B2
1.7 | B3
1 | B4
1.1 | B5
1.5 | B6
0.8 | B7
1.3 | B8

Target: T2, cynomolgus monkey FcγRIIa2 …
Test: SPR (Biacore); KD of SG1 / KD of variant;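 also: relative to parent M103205H795-SG1 carrying the SG1 human heavy chain constant region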
Procedure: as §1, §2

KD fold (SG1 = 1) [fold] | Binder
3.4 | B1
1.8 | B2
1.9 | B3
2.3 | B4
1.6 | B5
9.1 | B6
5.7 | B7
4.3 | B8

The binders below were run against T3, human FcγRIIaH extracellular domain, … (assay: SPR (Biacore); KD of SG1 / KD of variant;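 also: relative to parent M103205H795-SG1 carrying the SG1 human heavy chain constant region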).
Procedure: as §1, §2

KD fold (SG1 = 1) [fold] | Binder
0.8 | B1
0.8 | B2
0.7 | B3
0.6 | B4
0.8 | B5
1.9 | B6
0.5 | B7
1.4 | B8

Each binder was assayed against T8, human FcγRIIIaV extracellular domain, C-terminal His-tag (human, UniProt P08637 17-208) (assay: SPR (Biacore); KD of SG1 / KD of variant;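 also: relative to parent M103205H795-SG1 carrying the SG1 human heavy chain constant region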).
T8 construct: also called human FcgRIIIaV; FcgRIIIaV
Procedure: as §1, §2

T8 sequence (P08637 17-208 F176V): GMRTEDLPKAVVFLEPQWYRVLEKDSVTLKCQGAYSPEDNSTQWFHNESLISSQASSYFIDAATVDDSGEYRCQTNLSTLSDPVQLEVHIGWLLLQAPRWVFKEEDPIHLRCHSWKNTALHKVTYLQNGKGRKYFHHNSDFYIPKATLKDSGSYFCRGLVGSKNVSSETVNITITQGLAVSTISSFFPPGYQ

KD fold (SG1 = 1) [fold] | Binder
0.18 | B1
0.07 | B2
0.22 | B3
0.07 | B4
0.1 | B5
0.08 | B6
0.14 | B7
0.07 | B8

Target: T4, cynomolgus monkey FcγRIIa3 …
Test: SPR (Biacore); KD of SG1 / KD of variant
Procedure: as §1, §2

KD fold (SG1 = 1) [fold] | Binder
4.4 | B1
0.9 | B2
2.2 | B3
2.6 | B4
1.7 | B5
12.1 | B6
13.1 | B7
4.7 | B8

Target: T5, cynomolgus monkey FcγRIIb extracellular …
Test: SPR (Biacore); KD of SG1 / KD of variant
Procedure: as §1, §2

KD fold (SG1 = 1) [fold] | Binder
8.9 | B1
1 | B2
2.3 | B3
3.9 | B4
1.8 | B5
10.6 | B6
4.6 | B7
5.1 | B8

Target: T6, cynomolgus monkey FcγRIIIaS …
Test: SPR (Biacore); KD of SG1 / KD of variant
Procedure: as §1, §2

KD fold (SG1 = 1) [fold] | Binder
0.14 | B1
0.08 | B2
0.42 | B3
0.07 | B4
0.36 | B5
0.17 | B6
0.28 | B7
0.11 | B8

Target: T7, cynomolgus monkey FcγRIIa1 …
Test: SPR (Biacore); KD of SG1 / KD of variant
Procedure: as §1, §2

KD fold (SG1 = 1) [fold] | Binder
2.8 | B1
1.5 | B2
1.4 | B3
1.5 | B4
1.2 | B5
5.5 | B6
2.7 | B7
2.9 | B8

Target: T6, cynomolgus monkey FcγRIIIaS …
Test: SPR (Biacore), antibody captured, FcgR analyte

Kd [µM] | Binder
1.5 | B1
47 | B2
0.85 | B3
5.5 | B4
1 | B5
2.1 | B6
13 | B7
32 | B8
